Source: PMC8940645

Legend:
[1] = confocal immunofluorescence, giantin co-staining; conditions: glycan lost; control: wild type
[2] = active lysate incubation, R4-ICD/FGFR4 immunoblot ratio; conditions: glycan lost; control: wild type
[3] = NGI-1 overnight, R4-ICD immunoblot; conditions: glycan lost; control: vehicle
[4] = kifunensine 5 μM time course, R4-ICD immunoblot; conditions: glycan changed form; control: 0 h kifunensine

FGFR4: N290Q
localisation_or_trafficking [1]: no change | other: proteolytic processing, other: relative scale 0 to 3+ [2]: abolishes, 0 vs +++

FGFR4: N311Q
localisation_or_trafficking [1]: no change | other: proteolytic processing, other: relative scale 0 to 3+ [2]: decreases, ++ vs +++

FGFR4: N322Q
localisation_or_trafficking [1]: no change

FGFR4: NGI-1 10 μM
other: proteolytic processing [3]: increases

FGFR4: NGI-1 100 μM
other: proteolytic processing [3]: no change

FGFR4: kifunensine 8 h
other: proteolytic processing [4]: increases

FGFR4: kifunensine 16 h
other: proteolytic processing [4]: no change
